# Experimental data reported in US20080235826.
# Columns and labels:
# [1] = biological target: T1, purified oat phytochrome A, autophosphorylated (UniProt P06593)
# T1 sequence: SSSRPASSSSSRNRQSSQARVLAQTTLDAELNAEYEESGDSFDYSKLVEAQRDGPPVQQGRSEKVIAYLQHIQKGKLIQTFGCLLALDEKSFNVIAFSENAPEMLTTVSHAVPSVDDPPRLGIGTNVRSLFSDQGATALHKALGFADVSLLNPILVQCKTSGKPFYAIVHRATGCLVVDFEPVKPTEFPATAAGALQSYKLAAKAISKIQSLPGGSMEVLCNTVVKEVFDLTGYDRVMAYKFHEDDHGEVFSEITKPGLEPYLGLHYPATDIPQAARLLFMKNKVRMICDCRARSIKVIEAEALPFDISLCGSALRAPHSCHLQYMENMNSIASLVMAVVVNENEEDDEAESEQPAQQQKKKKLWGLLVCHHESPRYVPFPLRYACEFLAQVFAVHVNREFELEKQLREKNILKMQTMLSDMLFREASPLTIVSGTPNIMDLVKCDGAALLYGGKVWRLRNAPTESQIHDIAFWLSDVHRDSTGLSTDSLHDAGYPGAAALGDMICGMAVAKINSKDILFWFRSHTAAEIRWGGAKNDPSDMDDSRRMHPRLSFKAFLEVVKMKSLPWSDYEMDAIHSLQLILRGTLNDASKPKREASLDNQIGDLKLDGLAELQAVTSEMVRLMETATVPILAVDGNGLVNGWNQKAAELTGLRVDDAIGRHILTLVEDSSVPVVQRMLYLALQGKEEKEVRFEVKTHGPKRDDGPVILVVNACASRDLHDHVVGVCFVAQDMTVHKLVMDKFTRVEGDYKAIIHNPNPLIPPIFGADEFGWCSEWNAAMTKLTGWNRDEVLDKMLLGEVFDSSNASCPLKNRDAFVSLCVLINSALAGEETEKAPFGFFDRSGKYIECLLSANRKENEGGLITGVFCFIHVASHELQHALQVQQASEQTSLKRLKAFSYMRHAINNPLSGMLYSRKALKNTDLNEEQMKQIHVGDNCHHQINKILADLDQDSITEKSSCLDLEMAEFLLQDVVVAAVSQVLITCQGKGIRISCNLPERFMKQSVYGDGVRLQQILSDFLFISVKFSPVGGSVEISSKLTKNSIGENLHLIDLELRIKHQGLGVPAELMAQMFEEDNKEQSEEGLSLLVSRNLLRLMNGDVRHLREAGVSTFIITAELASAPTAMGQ
# [2] = biological target: T2, purified oat phytochrome A, autophosphorylated, P06593
# T2 chain: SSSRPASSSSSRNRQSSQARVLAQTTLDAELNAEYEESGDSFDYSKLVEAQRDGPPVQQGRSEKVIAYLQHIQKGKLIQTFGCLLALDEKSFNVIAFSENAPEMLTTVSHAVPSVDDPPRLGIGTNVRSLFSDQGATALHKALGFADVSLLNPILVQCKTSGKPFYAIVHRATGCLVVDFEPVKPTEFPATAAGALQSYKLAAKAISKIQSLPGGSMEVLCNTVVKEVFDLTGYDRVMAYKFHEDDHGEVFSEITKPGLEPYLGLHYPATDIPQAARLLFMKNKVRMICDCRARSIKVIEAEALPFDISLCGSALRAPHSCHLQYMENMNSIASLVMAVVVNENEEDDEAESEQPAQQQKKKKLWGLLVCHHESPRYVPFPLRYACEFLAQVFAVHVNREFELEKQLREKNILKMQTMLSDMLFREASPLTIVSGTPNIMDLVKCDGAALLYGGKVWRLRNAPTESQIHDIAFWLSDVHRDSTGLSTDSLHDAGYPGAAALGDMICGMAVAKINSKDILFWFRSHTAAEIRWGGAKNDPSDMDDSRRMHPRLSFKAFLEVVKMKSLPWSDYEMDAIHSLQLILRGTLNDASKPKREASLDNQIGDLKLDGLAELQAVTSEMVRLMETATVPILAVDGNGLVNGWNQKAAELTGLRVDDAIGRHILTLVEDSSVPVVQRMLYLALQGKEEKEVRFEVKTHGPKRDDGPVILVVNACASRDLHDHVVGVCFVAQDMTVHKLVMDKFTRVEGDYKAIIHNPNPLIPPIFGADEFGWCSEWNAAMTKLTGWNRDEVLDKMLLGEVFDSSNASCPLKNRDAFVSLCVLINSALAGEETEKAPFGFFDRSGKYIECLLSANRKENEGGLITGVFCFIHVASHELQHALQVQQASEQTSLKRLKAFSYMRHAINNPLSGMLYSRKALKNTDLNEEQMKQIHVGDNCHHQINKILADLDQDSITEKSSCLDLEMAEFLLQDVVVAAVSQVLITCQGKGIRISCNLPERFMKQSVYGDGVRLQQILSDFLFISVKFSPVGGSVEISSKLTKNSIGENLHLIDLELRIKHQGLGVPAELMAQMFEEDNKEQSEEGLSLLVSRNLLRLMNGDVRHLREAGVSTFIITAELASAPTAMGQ
# [3] = biological target: T3, Arabidopsis thaliana phytochrome A (PHYA), full-length, yeast two-hybrid fusion
# T3 chain: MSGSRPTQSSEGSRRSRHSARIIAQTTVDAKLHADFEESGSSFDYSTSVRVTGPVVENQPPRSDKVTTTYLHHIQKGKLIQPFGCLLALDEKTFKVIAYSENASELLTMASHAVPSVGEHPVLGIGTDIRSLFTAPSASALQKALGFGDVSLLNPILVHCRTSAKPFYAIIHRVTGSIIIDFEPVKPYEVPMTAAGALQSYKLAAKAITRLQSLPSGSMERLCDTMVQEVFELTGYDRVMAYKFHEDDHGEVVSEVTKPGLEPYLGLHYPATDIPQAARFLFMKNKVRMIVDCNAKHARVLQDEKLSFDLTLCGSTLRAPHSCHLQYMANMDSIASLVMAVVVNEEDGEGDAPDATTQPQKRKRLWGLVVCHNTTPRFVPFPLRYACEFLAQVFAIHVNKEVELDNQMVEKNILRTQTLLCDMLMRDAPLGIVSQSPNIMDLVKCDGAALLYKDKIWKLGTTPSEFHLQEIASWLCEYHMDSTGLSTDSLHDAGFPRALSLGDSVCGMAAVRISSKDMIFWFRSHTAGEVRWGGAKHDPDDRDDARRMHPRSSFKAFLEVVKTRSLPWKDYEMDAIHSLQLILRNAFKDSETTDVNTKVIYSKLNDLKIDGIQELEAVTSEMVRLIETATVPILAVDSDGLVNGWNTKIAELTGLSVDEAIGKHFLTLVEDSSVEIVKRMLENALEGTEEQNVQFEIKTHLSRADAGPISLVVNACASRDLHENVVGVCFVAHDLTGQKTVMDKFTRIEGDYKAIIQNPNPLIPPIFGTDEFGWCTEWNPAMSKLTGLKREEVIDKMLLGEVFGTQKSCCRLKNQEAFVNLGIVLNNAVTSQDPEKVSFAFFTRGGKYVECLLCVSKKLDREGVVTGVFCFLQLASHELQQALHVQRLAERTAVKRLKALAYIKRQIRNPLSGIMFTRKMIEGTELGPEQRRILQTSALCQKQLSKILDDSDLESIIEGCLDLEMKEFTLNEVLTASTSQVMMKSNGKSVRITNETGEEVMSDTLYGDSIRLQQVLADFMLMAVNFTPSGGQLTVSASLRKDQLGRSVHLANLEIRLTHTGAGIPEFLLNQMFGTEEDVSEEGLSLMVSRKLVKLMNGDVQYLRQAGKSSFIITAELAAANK
# [4] = biological target: Arabidopsis thaliana phytochrome B (PHYB), full-length, yeast two-hybrid bait in pGilda, P14713
# Sequence of Arabidopsis thaliana phytochrome B (PHYB), full-length, yeast two-hybrid bait in pGilda, P14713 (P14713 whole entry): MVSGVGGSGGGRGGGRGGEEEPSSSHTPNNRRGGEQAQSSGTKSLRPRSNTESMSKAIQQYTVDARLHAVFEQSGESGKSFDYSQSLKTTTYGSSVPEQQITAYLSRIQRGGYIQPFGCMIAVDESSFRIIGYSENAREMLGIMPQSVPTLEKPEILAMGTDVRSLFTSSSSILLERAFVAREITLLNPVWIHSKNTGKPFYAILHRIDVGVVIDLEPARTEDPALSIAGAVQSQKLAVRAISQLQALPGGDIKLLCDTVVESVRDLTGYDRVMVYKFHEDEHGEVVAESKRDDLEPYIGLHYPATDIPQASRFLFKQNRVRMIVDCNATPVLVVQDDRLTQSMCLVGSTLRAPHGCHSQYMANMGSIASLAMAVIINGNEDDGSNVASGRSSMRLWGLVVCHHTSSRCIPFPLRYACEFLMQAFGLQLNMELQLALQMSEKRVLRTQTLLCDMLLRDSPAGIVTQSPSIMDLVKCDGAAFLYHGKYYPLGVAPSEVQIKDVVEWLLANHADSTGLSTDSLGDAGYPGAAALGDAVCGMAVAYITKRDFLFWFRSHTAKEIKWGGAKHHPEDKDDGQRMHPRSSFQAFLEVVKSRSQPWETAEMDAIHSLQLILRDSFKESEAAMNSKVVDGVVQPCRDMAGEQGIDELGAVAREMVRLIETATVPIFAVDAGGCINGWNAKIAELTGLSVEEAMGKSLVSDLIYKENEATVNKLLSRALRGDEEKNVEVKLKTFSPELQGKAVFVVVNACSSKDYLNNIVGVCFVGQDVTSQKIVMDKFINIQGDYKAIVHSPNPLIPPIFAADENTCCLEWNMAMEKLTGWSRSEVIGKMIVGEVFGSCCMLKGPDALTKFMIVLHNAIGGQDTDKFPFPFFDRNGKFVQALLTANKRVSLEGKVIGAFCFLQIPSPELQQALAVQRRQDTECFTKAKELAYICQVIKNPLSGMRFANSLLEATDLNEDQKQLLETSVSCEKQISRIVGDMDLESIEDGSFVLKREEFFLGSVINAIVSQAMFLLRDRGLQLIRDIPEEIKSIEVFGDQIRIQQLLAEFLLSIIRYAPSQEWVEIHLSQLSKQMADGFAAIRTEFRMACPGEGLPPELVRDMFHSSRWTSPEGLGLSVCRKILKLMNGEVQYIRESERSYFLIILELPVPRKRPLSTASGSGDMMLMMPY
molecule,measurement,setting,value
"GST-PP2Ac (fusion protein of GST and the PP2A catalytic domain of PAPP5, with a deletion of amino acids 1-138 of SEQ ID NO: 4)",dephosphorylation of autophosphorylated oat Pfr phytochrome A (32P autoradiography),[1],the level of dephosphorylation was very low
GST-PAPP5 fusion protein (glutathione-S-transferase fused to full-length PAPP5) (protein) METKNENSDVSRAEEFKSQANEAFKGHKYSSAIDLYTKAIELNSNNAVYWANRAFAHTKLEEYGSAIQDASKAIEVDSRYSKGYYRRGAAYLAMGKFKDALKDFQQVKRLSPNDPDATRKLKECEKAVMKLKFEEAISVPVSERRSVAESIDFHTIEVEPQYSGARIEGEEVTLDFVKTMMEDFKNQKTLHKRYAYQIVLQTRQILLALPSLVDISVPHGKHITVCGDVHGQFYDLLNIFELNGLPSEENPYLFNGDFVDRGSFSVEIILTLFAFKCMCPSSIYLARGNHESKSMNKIYGFEGEVRSKLSEKFVDLFAEVFCYLPLAHVINGKVFVVHGGLFSVDGVKLSDIRAIDRFCEPPEEGLMCELLWSDPQPLPGRGPSKRGVGLSFGGDVTKRFLQDNNLDLLVRSHEVKDEGYEVEHDGKLITVFSAPNYCDQMGNKGAFIRFEAPDMKPNIVTFSAVPHPDVKPMAYANNFLRMFN,dephosphorylation of autophosphorylated oat Pfr phytochrome A (32P autoradiography),[2],only GST-PAPP5 dephosphorylated the autophosphorylated oat Pfr phytochrome A by about 80%
same,dephosphorylation of autophosphorylated oat phytochrome A according to its light absorption form,[2],the dephosphorylation by PAPP5 was higher in Pfr phytochrome than that in Pf phytochrome
"B42-PP2Ac (TPR domain-deleted PP2A catalytic domain of PAPP5, yeast two-hybrid prey) (protein) VPVSERRSVAESIDFHTIEVEPQYSGARIEGEEVTLDFVKTMMEDFKNQKTLHKRYAYQIVLQTRQILLALPSLVDISVPHGKHITVCGDVHGQFYDLLNIFELNGLPSEENPYLFNGDFVDRGSFSVEIILTLFAFKCMCPSSIYLARGNHESKSMNKIYGFEGEVRSKLSEKFVDLFAEVFCYLPLAHVINGKVFVVHGGLFSVDGVKLSDIRAIDRFCEPPEEGLMCELLWSDPQPLPGRGPSKRGVGLSFGGDVTKRFLQDNNLDLLVRSHEVKDEGYEVEHDGKLITVFSAPNYCDQMGNKGAFIRFEAPDMKPNIVTFSAVPHPDVKPMAYANNFLRMFN",beta-galactosidase activity in Miller units (quantitative yeast two-hybrid),[3],showed a remarkable reduction in the activity of interaction with phytochromes
same,beta-galactosidase activity in Miller units (quantitative yeast two-hybrid),[4],showed a remarkable reduction in the activity of interaction with phytochromes
